Assay [1] has as its target T1, synthetic biotinylated α-synuclein peptide 5-30 (human, biotinylated (position not given)).
T1 construct: also called α-synuclein 5-30
As to the kind of experiment: in-solution ELISA, antibody coated at 2 µg/ml, biotinylated peptide.

The target in assay [2] is T2, human α-synuclein pepscan peptide A02 (residues 5-20) (human, also: C-terminally coupled via flexible linker to cellulose membrane).
T2 construct: Printed as residues 5-20, although a 15-mer with 11 residues overlap to A01 would be 5-19
T2 peptide: MKGLSKAKEGVVAAAE
As to the kind of experiment: pepscan, immunoblotting.
Method: A membrane that comprises a total of 33 peptides was rinsed in methanol and then blocked with Rotiblock (Roth, Karlsruhe, Germany). The membrane was incubated with indicated antibodies diluted in blocking solution and then with horse radish peroxidase (HRP)-labeled secondary antibody for 1 hr. Between incubations the membrane was washed 3× with PBS-T for 5 min. The membrane was then developed using ECL plus Western Blotting Detection Reagents (GE Healthcare).
Adjacent peptides share an overlap of 11 residues and peptides were C-terminally spotted to a cellulose support membrane.

In assay [3] the target is T3, recombinant human β-synuclein (wt) (human, UniProt Q16143 1-134).
T3 construct: also called wt β-synuclein
As to the kind of experiment: direct ELISA.

The target of assay [4] is recombinant α-synuclein truncation aa 1-60 (human, UniProt P37840 1-60). As to the kind of experiment: direct ELISA.

Ends that are not written are not given here.

T3 sequence (Q16143 whole entry): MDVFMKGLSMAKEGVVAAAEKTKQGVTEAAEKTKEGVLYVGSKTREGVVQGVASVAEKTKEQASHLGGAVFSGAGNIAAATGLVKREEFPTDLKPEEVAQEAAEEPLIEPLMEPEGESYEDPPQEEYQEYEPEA

B1: recombinant human monoclonal antibody NI-202.12F4 (antibody, V domains shown)
VH: EVQLVQSGGGLVEPGGSLRLSCAVSGFDFEKAWMSWVRQAPGQGLQWVARIKSTADGGTTSYAAPVEGRFIISRDDSRNMLYLQMNSLKTEDTAVYYCTSAHWGQGTLVTVSS
VL: QSVLTQPPSVSVSPGQTARITCSGEALPMQFAHWYQQRPGKAPVIVVYKDSERPSGVPERFSGSSSGTTATLTITGVQAEDEADYYCQSPDSTNTYEVFGGGTKLTVL
notes: Lambda light chain; HEK293 or CHO conditioned medium
For B1, the binding result in assay [1], in assay [2] and in assay [3] was “no binding” in each case.

B2: recombinant human monoclonal antibody NI-202.21D11 (antibody, V domains shown)
VH: EVQLVESGAEVKKPGASVKVSCKASGYTFTNYAMHWVRQAPGQRLEWMGWINAGNGKRKYSQKFQDRVTINRDTSASTIYMELSSLGSEDTAVYYCAREEDHAGSGSYLSMDVWGQGTLVTVSS
VL: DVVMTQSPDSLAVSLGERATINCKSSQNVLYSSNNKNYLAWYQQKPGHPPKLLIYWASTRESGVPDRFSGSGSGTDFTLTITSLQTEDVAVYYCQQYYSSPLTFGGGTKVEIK
notes: Expressed recombinantly in HEK293 or CHO cells as a complete antibody (methods: human IgG1 or chimeric mouse IgG2a constant regions); conditioned medium used directly unless otherwise stated
As for B2, in assay [4], the binding result is reported as “no binding (tested: coated at 2 ug/ml)”.
